{"source": "paper PMC6336734", "molecular_target": "Recombinant PP35 gp156 tail spike protein (Dickeya bacteriophage PP35)", "test": "SEC", "data": [{"substance": "Recombinant PP35 gp156 tail spike protein (natural protein)", "values": [{"measurement": "stoichiometry N", "value": 3}]}]}
